Data set [1] addresses ZEV (Zif268 zinc fingers - estrogen receptor - VP16 activator) (synthetic construct, UniProt P18146 SEQ:1-87). Nature of the data set: cell_activity; yeast reporter, modified GAL1 promoter, 15 min after beta-estradiol.
The target in data set [2] is 4ZEV (designed four zinc finger - estrogen receptor - VP16 activator) (synthetic construct). The description is as above. The following applies: tags: 4Z DBD replaces Gal4 DBD of GEV.

B1: Zif in vivo target (three pairs of sites) (dsDNA)
DNA 1: GCGTGGGCGTGCGTGGGCGGGCGTGGGCGTGCGTGGGCGGGCGTGGGCGTGCGTGGGCG
DNA 2: CGCCCACGCACGCCCACGCCCGCCCACGCACGCCCACGCCCGCCCACGCACGCCCACGC
On to B1, for which, in data set [1], the activity is > 50 fold induction of GFP transcripts.

B2: 4Z in vivo target (three pairs of sites) (dsDNA)
DNA 1: GCGGCGGAGGAGTGCGGCGGAGGAGGAGCGGCGGAGGAGTGCGGCGGAGGAGGAGCGGCGGAGGAGTGCGGCGGAGGAG
DNA 2: CTCCTCCGCCGCACTCCTCCGCCGCTCCTCCTCCGCCGCACTCCTCCGCCGCTCCTCCTCCGCCGCACTCCTCCGCCGC
B2: in data set [2], the activity is > 50 fold induction of GFP transcripts.

Source of the values: patent US20140128287, “SYSTEMS FOR INDUCTION OF GENE EXPRESSION AND PROTEIN DEPLETION IN YEAST” (THE TRUSTEES OF PRINCETON UNIVERSITY, published 2014).
